Assay [1] deals with TRPC4β, CFP- or YFP-tagged (UniProt Q9QUQ5). Nature of the assay: FRET or BRET; three-cube FRET in living cells expressing Gαq (WT)-YFP, M3 and TRPC1α with TRPC4β-CFP or CFP-TRPC5; after stimulation with 100 μM CCh. On the technique in general: BRET reads energy transfer from a luciferase to a nearby fluorophore.
The target of assay [2] is TRPC5, CFP- or YFP-tagged (UniProt Q9QX29). The assay is described as above.

Drawing on publication PMC6092394, this text covers FRET efficiency (after 100 μM CCh) for 1 substance.

UniProt Q9QX29, sequence (Q9QX29 whole entry): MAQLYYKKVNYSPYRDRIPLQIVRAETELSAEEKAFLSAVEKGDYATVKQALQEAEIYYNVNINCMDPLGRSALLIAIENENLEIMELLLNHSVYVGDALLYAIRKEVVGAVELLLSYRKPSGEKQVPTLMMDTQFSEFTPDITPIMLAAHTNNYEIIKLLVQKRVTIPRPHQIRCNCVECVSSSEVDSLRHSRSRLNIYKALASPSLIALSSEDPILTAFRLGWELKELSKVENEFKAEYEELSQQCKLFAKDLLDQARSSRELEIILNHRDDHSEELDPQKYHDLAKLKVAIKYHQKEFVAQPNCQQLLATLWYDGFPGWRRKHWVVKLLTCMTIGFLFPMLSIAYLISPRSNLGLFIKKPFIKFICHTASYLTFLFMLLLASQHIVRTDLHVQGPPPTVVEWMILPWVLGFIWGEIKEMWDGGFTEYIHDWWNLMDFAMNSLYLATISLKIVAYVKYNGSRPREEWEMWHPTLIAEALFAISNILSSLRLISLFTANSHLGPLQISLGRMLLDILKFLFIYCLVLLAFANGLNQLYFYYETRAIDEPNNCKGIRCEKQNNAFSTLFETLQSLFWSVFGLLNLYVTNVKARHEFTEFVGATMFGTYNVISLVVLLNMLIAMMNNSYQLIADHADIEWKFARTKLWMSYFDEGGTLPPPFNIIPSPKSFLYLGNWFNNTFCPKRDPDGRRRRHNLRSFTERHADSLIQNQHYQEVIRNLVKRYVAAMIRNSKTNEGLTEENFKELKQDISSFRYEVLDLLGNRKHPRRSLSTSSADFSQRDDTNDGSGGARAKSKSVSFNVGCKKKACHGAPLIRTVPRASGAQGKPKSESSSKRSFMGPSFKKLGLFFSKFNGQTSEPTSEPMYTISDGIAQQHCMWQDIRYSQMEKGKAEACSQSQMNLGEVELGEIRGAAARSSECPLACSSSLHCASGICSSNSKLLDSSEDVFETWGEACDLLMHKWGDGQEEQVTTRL
UniProt Q9QUQ5, sequence (Q9QUQ5 other isoform, or with tags, fused parts or gaps): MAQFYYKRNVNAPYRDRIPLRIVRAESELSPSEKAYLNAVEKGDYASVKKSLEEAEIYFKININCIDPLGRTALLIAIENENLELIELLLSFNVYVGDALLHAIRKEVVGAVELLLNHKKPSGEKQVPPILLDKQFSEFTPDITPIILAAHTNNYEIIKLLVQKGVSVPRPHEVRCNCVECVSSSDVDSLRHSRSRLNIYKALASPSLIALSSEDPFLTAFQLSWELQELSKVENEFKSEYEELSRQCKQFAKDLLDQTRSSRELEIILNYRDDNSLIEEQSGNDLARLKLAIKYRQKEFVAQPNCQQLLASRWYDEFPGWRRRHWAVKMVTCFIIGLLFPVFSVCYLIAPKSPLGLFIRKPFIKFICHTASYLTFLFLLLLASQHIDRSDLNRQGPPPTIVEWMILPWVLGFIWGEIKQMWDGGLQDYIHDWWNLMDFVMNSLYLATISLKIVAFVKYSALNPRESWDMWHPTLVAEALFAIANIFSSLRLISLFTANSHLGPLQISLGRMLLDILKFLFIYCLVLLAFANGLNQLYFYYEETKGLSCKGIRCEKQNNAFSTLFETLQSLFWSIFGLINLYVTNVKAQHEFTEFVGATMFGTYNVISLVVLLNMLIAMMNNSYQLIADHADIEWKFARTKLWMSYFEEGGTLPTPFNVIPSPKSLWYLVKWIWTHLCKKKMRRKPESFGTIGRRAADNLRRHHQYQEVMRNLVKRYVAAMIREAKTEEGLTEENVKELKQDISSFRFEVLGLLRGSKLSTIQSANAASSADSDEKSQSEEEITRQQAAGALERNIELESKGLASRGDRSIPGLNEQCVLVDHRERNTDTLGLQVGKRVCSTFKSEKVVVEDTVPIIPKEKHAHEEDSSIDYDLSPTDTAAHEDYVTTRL

Turning to “Gαq (WT)-YFP (from UniProt P50148 1-359) (natural protein)”, the FRET efficiency (after 100 μM CCh) in assay [1] worked out at 8.8%; in assay [2], 15.9%.
